Measured values published in article PMC11711466, “Reconstitution of human DNA licensing and the structural and functional analysis of key intermediates”.

B1: 158 bp lamin B2 (dsDNA)
DNA 1: GCCTGCCGCGCATGCGCACGAGGCACCCGGCGCGTCTATACAGCGTGTTGCCGCCGGGGCGGAGCCCGGTCGCATCACGTGACGAAGAGTCAGCTTGTGCAACAGCGTCGGAGGCTCACTAGAAAAAAAAGGGCAGGGTCCCATGCATCGCCTGGGTC
DNA 2: GACCCAGGCGATGCATGGGACCCTGCCCTTTTTTTTCTAGTGAGCCTCCGACGCTGTTGCACAAGCTGACTCTTCGTCACGTGATGCGACCGGGCTCCGCCCCGGCGGCAACACGCTGTATAGACGCGCCGGGTGCCTCGTGCGCATGCGCGGCAGGC
B2: 90 bp ARS1 (dsDNA)
DNA 1: GTTATTTTACAGATTTTATGTTTAGATCTTTTATGCTTGCTTTTCAAAAGGCCTGCAGGCAAGTGCACAAACAATACTTAAATAAATACTA
DNA 2: TAGTATTTATTTAAGTATTGTTTGTGCACTTGCCTGCAGGCCTTTTGAAAAGCAAGCATAAAAGATCTAAACATAAAATCTGTAAAATAAC

Experiments:
hMCM2-7 = hMCM2-7 (human, UniProt P49736;P25205;P33991;P33992;Q14566;P33993 1-904;1-808;1-863;1-734;1-821;1-719); test: negative stain EM, in-solution loading; double hexamers; loaded by ORC1-5, ORC6, CDC6, CDT1deltaN, ATP; more than without ORC6; 25 mM HEPES-KOH pH 7.5, 250 mM KGlu, 1 mM DTT, 4 mM MgOAc, 0.1% Triton X-100, 1 mM ATP or ATPgS, 30 C; high-salt wash adds 300 mM NaCl; in-solution: HEPES-NaOH, 0.05% Triton X-100; settings: protein: recombinant; tags: N-terminal Twin-Strep MCM2; N-terminal 8xHis MCM4; chain copies: 2;2;2;2;2;2; blunt
hORC1-5;hCDC6 = hORC1-5;hCDC6 (human;human, UniProt Q13415;Q13416;Q9UBD5;O43929;O43913;Q99741 1-861;1-577;1-711;1-436;1-435;1-560, |); test: pull-down via Strep-hORC1; CDC6 retained with ORC1-5 only with DNA; 25 mM HEPES-KOH pH 7.5, 250 mM KGlu, 1 mM DTT, 4 mM MgOAc, 0.1% Triton X-100, 1 mM ATP or ATPgS, 30 C; high-salt wash adds 300 mM NaCl; in-solution: HEPES-NaOH, 0.05% Triton X-100; settings: protein: recombinant;recombinant; tags: N-terminal Twin-Strep on ORC1 (removed with SUMOstar protease in some preps);GST, cleaved; copies: 1;1;1;1;1;1; blunt

Row | Binder | binding result (hMCM2-7) | binding result (hORC1-5;hCDC6)
1 | B1 | binds | –
2 | B2 | – | binds
